{
  "source": "patent US10689421B2",
  "about": "“Bacteriocin-producing Paenibacillus ehimensis and application thereof” (National Pingtung University of Science and Technology, priority 2018, dated 2020)",
  "molecules": {"B1": {"name": "Peocin: bacteriocin; DNA starvation/stationary phase protection protein produced by Paenibacillus ehimensis NPUST-1, amino acid SEQ ID NO: 1 (protein, listed as Paenibacillus ehimensis)", "chain": "MNEQLTVLLNNQIANWSVLYVKLHNYHWYVKGPQFFTLHTKFEELYTEAALHVDALAERLLALGGKPVATMSGSLRLASVREAEGEESAERMVAALVNDFTLIIGELKSGMKYAESVQDETTGDLLLAIHSSLEKHVWMLNAFLGN"}},
  "tested_on": "E. coli",
  "assay": "Antibacterial activity of purified antibacterial protein (Resazurin reduction assay)",
  "format": "cell-based",
  "conditions": "compared with the unpurified culture supernatant",
  "protocol": "Antibacterial activity is evaluated by using Resazurin reduction assay. The Resazurin reduction assay is used to determine bacteria or cell activity, based on its reaction with mitochondria NADH dehydrogenase, which reduces the original dark blue Resazurin into pink Resorufin. Dilute the indicator bacterial strain E. coli cultured in advance to 1×10^7 CFU/ml and prepare 0.25 mg/ml Resazurin dye for following experiment. 96-well plate was divided into groups of three well as a triplication of one sample set; the total being 21 sets and every well was added with 60 μl TSB medium, 10 μl Resazurin dye, 10 μl indicator strain and 20 μl sample (total 100 μl). The aforementioned 20 μl sample is prepared by adding 0, 1, 2, . . . 20 μl of sample medium respectively, then use TSB medium to fill the total sample volume to 20 μl. Place the sample added 96-well plate in 37° C. incubation box for 12 hours and observe the results. Antibacterial unit (AU) is determined by Resazurin assay, whereas the minimum amount of sample medium required to inhibit color change is 1AU. The antibacterial activity of sampled culture in each time point is represented by how many AU there is in 1 ml of medium.\nTake 500 μl liquid bacteria from −80° C. preserved NPUST-1 strain, add it to 50 ml TSB broth culture and culture it for 24 hours under 28° C. for activation. […]",
  "data": [
    {"molecule": "B1", "values": [
      {"measurement": "antibacterial activity after preliminary purification", "value": "significantly higher"}
    ]}
  ]
}
